Data from US20170304566A1 (Ablynx, published 2017).

Target: F protein (fusion glycoprotein) of hRSV, Memphis 37 strain (human respiratory syncytial virus, …)
Assay: cell-based or functional assay

B1: SEQ ID NO: 71 (RSV434), trivalent polypeptide consisting of three anti-hRSV immunoglobulin single variable domains (VHH)
chain: DVQLVESGGGLVQAGGSLSISCAASGGSLSNYVLGWFRQAPGKEREFVAAINWRGDITIGPPNVEGRFTISRDNAKNTGYLQMNSLAPDDTAVYYCGAGTPLNPGAYIYDWSYDYWGRGTQVTVSSGGGGSGGGGSGGGGSEVQLVESGGGLVQAGGSLSISCAASGGSLSNYVLGWFRQAPGKEREFVAAINWRGDITIGPPNVEGRFTISRDNAKNTGYLQMNSLAPDDTAVYYCGAGTPLNPGAYIYDWSYDYWGRGTQVTVSSGGGGSGGGGSGGGGSEVQLVESGGGLVQAGGSLSISCAASGGSLSNYVLGWFRQAPGKEREFVAAINWRGDITIGPPNVEGRFTISRDNAKNTGYLQMNSLAPDDTAVYYCGAGTPLNPGAYIYDWSYDYWGRGTQVTVSS
- sensitivity in in vitro neutralization relative to RSV-B 18537: ~6 fold
